Reference: the RNAGym collection of RNA variant scans (doi:10.7554/elife.80360)

B1: Hairpin Ribozyme (parent)
chain: GUCCUCUUUCACGUGCGCGUGAAAGAGAGAAGUGAACCAGAGAAACACACGUUGUGGUAUAUUACCUGGUA

Variants of: B1
Assay: self-cleavage, relative activity (ratio to wild type); higher = more cleavage; co-transcriptional

| Variant | self-cleavage |
| --- | --- |
| C48G C66G | 0.105 |
| A45C C46U | 0.067 |
| A45C C46A | 0.152 |
| A44U A59G | 0.253 |
| A44U A59U | 0.0331 |
| C48A U67G | 0.122 |
| A45G U70C | 0.0703 |
| C46A G56U | 0.077 |
| A44C U70G | 0 |
| C48A A64G | 0.127 |
| A47C U55A | 0.195 |
| C48G U63C | 0.0816 |
| C48U G51A | 0.082 |
| C46U U63C | 0.106 |
| A47G C66G | 0.128 |
| A44G U53G | 0.112 |
| A44G U53A | 0.214 |
| A47G A61G | 0.219 |
| C48A A61U | 0.163 |
| C46G U53C | 0.0868 |
| C46G U53A | 0.0595 |
| C48G U67A | 0.259 |
| C48G U67C | 0.117 |
| A47G C50G | 0.105 |

| Variant | self-cleavage |
| --- | --- |
| A47G C50A | 0.172 |
| A47U A71U | 0.234 |
| A47U A71G | 0.191 |
| C48G A49G | 0.123 |
| C48G A49U | 0.104 |
| A44G G57A | 0.123 |
| A47C G56U | 0.149 |
| A44G A71G | 0.117 |
| A45G A61C | 0.142 |
| A44U C66U | 0.222 |
| A44U C66A | 0.151 |
| A44U A64U | 0.203 |
| A44U A64C | 0.216 |
| A44G U63G | 0.239 |
| A44G U63C | 0.21 |
| A45G U52G | 0.0854 |
| C48G A64C | 0.242 |
| A47U G54C | 0.144 |
| A47U G54U | 0.145 |
| A47U G54A | 0.159 |
| A47C C65G | 0.203 |
| C46G G68A | 0.123 |
| C46G G68U | 0.19 |
| A45U A61G | 0.184 |

| Variant | self-cleavage |
| --- | --- |
| A45C U53G | 0.138 |
| A45C A49U | 0.202 |
| A47C U62G | 0.227 |
| A44G A49G | 0.126 |
| A44G A49C | 0.0332 |
| C48G U58C | 0.143 |
| C46A G69A | 0.13 |
| C48U A49C | 0.225 |
| A45G C50U | 0.174 |
| A45G C50A | 0.123 |
| A45G U67A | 0.0776 |
| A44U A71U | 0.256 |
| A44U A71C | 0.3 |
| A45G U55A | 0.121 |
| A44G A64C | 0.12 |
| A44G A64U | 0.102 |
| C46G U55G | 0.107 |
| C48A A49U | 0.172 |
| C48A A49C | 0.155 |
| C48A A49G | 0.215 |
| A45C U60C | 0.293 |
| C46G U70C | 0.203 |
| A45C U67G | 0.0812 |
| C48U C66U | 0.194 |

| Variant | self-cleavage |
| --- | --- |
| C48U C66G | 0.138 |
| A47C G51C | 0.377 |
| A44U G54A | 0.181 |
| A45G U60G | 0.187 |
| A45G U60C | 0.0993 |
| C46G U67G | 0.198 |
| C46G U67C | 0.173 |
| C48A U62G | 0.0864 |
| A47U A64U | 0.123 |
| A47U A64G | 0.0969 |
| A45G U53A | 0.234 |
| A45U U67G | 0.131 |
| A44G U52C | 0.223 |
| A45G A49C | 0.103 |
| A47C U70G | 0.272 |
| C48A U63G | 0.229 |
| C48A U63A | 0.174 |
| A44G C50A | 0.198 |
| A44G C50U | 0.134 |
| A47G U63G | 0.0332 |
| A47G U63A | 0.211 |
| A45U U52A | 0.122 |
| C48U C65G | 0.0909 |
| C48U C65A | 0.086 |

| Variant | self-cleavage |
| --- | --- |
| A44U A61G | 0.124 |
| A47C G68U | 0.298 |
| C48G U70C | 0.302 |
| C46U C66U | 0.149 |
| C46A A64U | 0.255 |
| C46A A64C | 0.0755 |
| C46A A64G | 0.185 |
| A44G A45G | 0.228 |
| A44G A45U | 0.0878 |
| A45U C66A | 0.204 |
| A45U C66U | 0.117 |
| A47U A59G | 0.151 |
| C46A A47C | 0.0767 |
| C48A G57A | 0.121 |
| C46U | 0.149 |
| C46A | 0.148 |
| C46G | 0.15 |
| C48A U60A | 0.134 |
| A47G U62A | 0.0725 |
| A44U U52G | 0.121 |
| A47G G57A | 0.151 |
| A47G U55G | 0.139 |
| A47G U55A | 0.184 |
| C46A A61U | 0.171 |

| Variant | self-cleavage |
| --- | --- |
| A47G G51U | 0.15 |
| A47G G51C | 0.221 |
| C46U G56C | 0.204 |
| C46U G56A | 0.138 |
| C46G U62A | 0.148 |
| C48U C50A | 0.0417 |
| C48U C50U | 0.0683 |
| C48U C50G | 0.109 |
| C48A U52G | 0.131 |
| C48A U52C | 0.162 |
| A45U U55A | 0.197 |
| A45U G54A | 0.138 |
| A45U G54C | 0.23 |
| A45U G54U | 0.0699 |
| C48G G69A | 0.224 |
| C48G G69C | 0.0597 |
| C48G G69U | 0.0941 |
| A47G U58C | 0.17 |
| C46U G51A | 0.132 |
| C48G A59C | 0.119 |
| A47U C50U | 0.171 |
| C46A G51A | 0.215 |
| C46A G51U | 0.146 |
| A45C U62C | 0.141 |

| Variant | self-cleavage |
| --- | --- |
| A47G A64G | 0.0949 |
| A47G A64C | 0.0744 |
| A45C C48A | 0.0612 |
| A45C C48G | 0.188 |
| A47C U67A | 0.128 |
| A47C G69A | 0.151 |
| A47C G69U | 0.0997 |
| C48U A61U | 0.151 |
| A47C C48A | 0.164 |
| C46G U52A | 0.189 |
| C46G U52G | 0.232 |
| C46G U52C | 0.144 |
| C46A U62G | 0.0929 |
| A45G G51A | 0.161 |
| C46U U70C | 0.161 |
| A47C A61U | 0.137 |
| C48G A61U | 0.0929 |
| C48A U70C | 0.27 |
| A44G A47C | 0.222 |
| A44G A47U | 0.163 |
| A45G U63C | 0.0324 |
| A45G U63G | 0.226 |
| A47U C65G | 0.139 |
